The source of these data is the DeepSol protein solubility set.

This data set is described as follows: soluble on expression in E. coli; label from the status in PepcDB or PDB records.
With “MSLEGNLEELVYFYPPSTTPPAVGKYTQLISDLLQSVSIVDALPRGAAQAGILCQDTKEVLESENTVLEIAIPRQDNLVIVGDIHGQFADMLSNVLSIQLNLNNTKATDGRGSPSTEIYKFLFLGDYVDRGPQSLEVITLLFALKVEYPEHIFLLRGNHEEAQTSRLYGFFQECKSKLEGTGDRGPASVDITSSTWLQYNTVFCWLPLAAVVACPSGMFFCTHGGLSPHTLSVPLLRSLRRNEYGMVDDFEDTFYTPTSRGGDDMLEGPGAKARLVIDGLLWSDPEDQVSGCQMNNRGCGFIFGPDVTRSFLDRNYSYGFPPSKRQLIGEMKPGMQFILRGHQCAREGYMWCHGGLVLTLFSAPNYCGMHGNKGAVALLRGQVQAGKDRVELEFNVYDTVVRGGSDNLVACLSPFAFAHYFSGDSEGHHHHHH”, the “soluble on expression in E. coli” value is given as “soluble”.
Consider “MYDVVVVGAGPAGSRYARQAASRGLDVVVFEQGEIGKPLACSGHVSTDIWEFTEDARDELFQNEISGARFHTGGPGSQDHPFYKDEVISNVIDRVGLDKHLAGLARDAGADVREAHSVVGVTEDRDGVTVEVRGDDGVETHRAKMVAGCDGPKSRVRRELDLPEPDELLHGVLGFSDEVDHGDFVDVHLTVPRFFAWRIPRGEAGVEYGLAVPPGDDARGRFEEFVDGYGVETDHRCSGLIPIGPPKRVTGRRSFLIGDAAAQTKPFTGGGIRYGMTAADHAAREIDPEDPATLGEYERAWRDDLRQEIRLGHAVRAGYSAPEPIQKAGMKAFEGEIGVHMDRPTTLFSREQLAALFSRSLEHHHHHH”, for which the “soluble on expression in E. coli” value is “soluble”.
As for “MKKTLYIFQNGELRRKDHSLYFETEERKRYIPVENTNDIYIFGEVDVSKRFLEFAAQKEIIVHYFNHYGYYVGSFYPREHLNSGHVVLKQAEHYIDPAKRLELACLFVQGSIRQMERVLKYYRSRLSDPEELEKALQLIEREEGKLSQANTVEQLMAVEGHIREAYYASFDAILRHPDFVFEKRTKRPPHNRLNALISFGNSIVYTMCLSEIYKTYLDPRIGFLHSTNFRRFSLNLDIAEIFKPIIVDRLIFTLVNKRMLSSKHFEKLTNGIVLNEEGRKLFVSELEKKMQTTVQHRHLGKSVSYRRLIRLELYKVQKHILGEKMYEPYAARW”, the “soluble on expression in E. coli” value is given as “not soluble”.
Consider “MGSDKIHHHHHHMNNQEKNMLGFNQDEYLTSAREIIAARQKAEQVADEIYQAGFSSLFFASVGGSLAPMMAINEFAKELTTLPVYVEQAAELIHKGNKRLNKDSVVITLSKSGDTKESVAIAEWCKAQGIRVVAITKNADSPLAQAATWHIPMRHKNGVEYEYMLLYWLFFRVLSRNNEFASYDRFASQLEILPANLLKAKQKFDPQADAIASRYHNSDYMMWVGGAEMWGEVYLFSMCILEEMQWKRTRPVSSAEFFHGALELLEKDVPLILVKGEGKCRALDERVERFASKITDNLVVIDPKAYALDGIDDEFRWIMAPCVVSTLLVDRLAAHFEKYTGHSLDIRRYYRQFDY”, for which the “soluble on expression in E. coli” value is listed as “soluble”.
Under “MGSDKIHHHHHHMIYIDKNESPVTPLDEKTMTSIISATPYNLYPDAAYEQFKEAYAKFYGLSPEQIIAGNGSDELIQKLMLIMPEGPALTLNPDFFMYQAYAAQVNREIAFVDAGSDLTFDLETILTKIDEVQPSFFIMSNPHNPSGKQFDTAFLTAIADKMKALNGYFVIDEAYLDYGTAYDVELAPHILRMRTLSKAFGIAGLRLGVLISTAGTIKHIQKIEHPYPLNVFTLNIATYIFRHREETRVFLTMQRQLAEQLKQIFDTHVADKMSVFPSNANFVLTKGSAAHQLGQYVYEQGFKPRFYDEPVMKGYVRYSIATASQLKQLEEIVKEWSAKYDLSKTTKHS” stands “not soluble”.
In the case of “MKNNKIYLLGACLLCAVTTFAQNVSLQPPPQQLIVQNKTIDLPAVYQLNGGEEANPHAVKVLKELLSGKQSSKKGMLISIGEKGDKSVRKYSRQIPDHKEGYYLSVNEKEIVLAGNDERGTYYALQTFAQLLKDGKLPEVEIKDYPSVRYRGVVEGFYGTPWSHQARLSQLKFYGKNKMNTYIYGPKDDPYHSAPNWRLPYPDKEAAQLQELVAVANENEVDFVWAIHPGQDIKWNKEDRDLLLAKFEKMYQLGVRSFAVFFDNISGEGTNPQKQAELLNYIDEKFAQVKPDINQLVMCPTEYNKSWSNPNGNYLTTLGDKLNPSIQIMWTGDRVISDITRDGISWINERIKRPAYIWWNFPVSDYVRDHLLLGPVYGNDTTIAKEMSGFVTNPMEHAESSKIAIYSVASYAWNPAKYDTWQTWKDAIRTILPSAAEELECFAMHNSDLGPNGHGYRREESMDIQPAAERFLKAFKEGKNYDKADFETLQYTFERMKESADILLMNTENKPLIVEITPWVHQFKLTAEMGEEVLKMVEGRNESYFLRKYNHVKALQQQMFYIDQTSNQNPYQPGVKTATRVIKPLIDRTFATVVKFFNQKFNAHLDATTDYMPHKMISNVEQIKNLPLQVKANRVLISPANEVVKWAAGNSVEIELDAIYPGENIQINFGKDAPCTWGRLEISTDGKEWKTVDLKQKESRLSAGLQKAPVKFVRFTNVSDEEQQVYLRQFVLTIEKK” it was “soluble”; in that of “HVYAFDIQESAVANTKERLGDMYQARTTLFHKSHDKIAESLPPETHGKVAAAVFNLGYLPGGDKSITTNGSSTIKAIEQLLSIMKDEGLIVLVVYHGHPEGKAEKNDVLEFCRDLDQQTARVLTYGFINQQNDPPFIVAIEKKAQISK”, “not soluble”.
Take “MVSRLARLARRVGRKLKALTPTPKTPEPPSLPLILDAPVAPGFTTAREVWCAPGFGVVVDAGGQVLGGAARQALGFSPDLAALPGVRVSDGGSRLILPEGAPRLARGAVVAGWGDLRNYAGFVLNTLPALVEASKAGVLADHPLVTPPLTRWQADLLTLAGLASPLINAAPWVVLDEAVLSPPPSPVATHAMLAEVRERVLATPGPASGARPKLYVSRADAMNAVMVDEEGVEIELAALGYTIVRPETSSTRELIGLFREAKVIVAPTGTVLANALFCAADAQIVEIRPPGANGLWVRDLAVLAGATWHGFDAPGEKEAPGAPLDPALPPASAFGWRADAAALLAFLAQRSLEHHHHHH”: the “soluble on expression in E. coli” value is given as “not soluble”.
With “MRSLISSLDLTREEVEEILKYAKEFKEGKEETIKASAVLFFSEPSTRTRLSFEKAARELGIETYLVSGSESSTVKGESFFDTLKTFEGLGFDYVVFRVPFVFFPYKEIVKSLNLRLVNAGDGTHQHPSQGLIDFFTIKEHFGEVKDLRVLYVGDIKHSRVFRSGAPLLNMFGAKIGVCGPKTLIPRDVEVFKVDVFDDVDKGIDWADVVIWLRLQKERQKENYIPSESSYFKQFGLTKERFEKVKLYMHPGPVNRNVDIDHELVYTEKSLIQEQVKNGIPVRKAIYKFLWT”, the “soluble on expression in E. coli” value was “soluble”.
Under “MGSDKIHHHHHHMKERILQEIKTRVNRKSWELWFSSFDVKSIEGNKVVFSVGNLFIKEWLEKKYYSVLSKAVKVVLGNDATFEITYEAFEPHSSYSEPLVKKRAVLLTPLNPDYTFENFVVGPGNSFAYHAALEVAKHPGRYNPLFIYGGVGLGKTHLLQSIGNYVVQNEPDLRVMYITSEKFLNDLVDSMKEGKLNEFREKYRKKVDILLIDDVQFLIGKTGVQTELFHTFNELHDSGKQIVICSDREPQKLSEFQDRLVSRFQMGLVAKLEPPDEETRKSIARKMLEIEHGELPEEVLNFVAENVDDNLRRLRGAIIKLLVYKETTGKEVDLKEAILLLKDFIKPNRVKAMDPIDELIEIVAKVTGVPREEILSNSRNVKALTARRIGMYVAKNYLKSSLRTIAEKFNRSHPVVVDSVKKVKDSLLKGNKQLKALIDEVIGEISRRALSG” stands “not soluble”; under “MGSDKIHHHHHHEKKDKKENDTSAAQATETDCTAAELVTTEPEAEITISEMIDQRIKEEGKIMMYRMHFGPSKTPLEITEDLNVNIISYDGKELIDYGNSSNRRGETRLGDIIHNKVDYSTYDIGAYGGSWKRHRRVSGGDEKYVEEEGYVQREITTDDSGNNTQMETLYLYSKGTLYTREEGSEVWNQTEKNDNLPVVAFGTFERIKLDGKTYMTFCVRDDLNLIKYIIIPDNKFTENKTVVYDTPGTEGTTVNTVDYLKEYQAVPKEELEQMIVFPGSKKAESSQAAD”, “not soluble”.
